B1: MLL5 (parent)
chain: TYLCERCQPRNLDKERAVLLQRRK

Variants of: B1
Assay: protein stability index of a GFP-peptide fusion (GPS, HEK-293T) (PSI 1-6); higher = more stable
Settings: c terminus: a fixed tail appended
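Note: lentivirally expressed fusions sorted by FACS into six bins by GFP to DsRed ratio, PSI derived from sequencing read proportions per bin multiplied by bin number.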

| Variant | protein stability index |
| --- | --- |
| TYLCERCQPRNLDKERAVLLQRPK [R23P] | 2.5 |
| TYLCERCQPRNLDKERAVLLQRIK [R23I] | 2.57 |
| TYLCERCQPRNLDKERAVLLQRKK [R23K] | 2.91 |
| TYLCERCQPRNLDKERPVLLQRRK [A17P] | 1.77 |
| TYLCERCQPRNLDKERCVLLQRRK [A17C] | 2.08 |
| TYLCCRCQPRNLDKERAVLLQRRK [E5C] | 1.63 |
| TYLCGRCQPRNLDKERAVLLQRRK [E5G] | 2.28 |
| TYLCFRCQPRNLDKERAVLLQRRK [E5F] | 1.94 |
| TYLCIRCQPRNLDKERAVLLQRRK [E5I] | 2.47 |
| TYLCHRCQPRNLDKERAVLLQRRK [E5H] | 2.12 |
| TYLCERCQPRNPDKERAVLLQRRK [L12P] | 2.69 |
| TYLCERCQPRNGDKERAVLLQRRK [L12G] | 2.71 |
| TYLCERCQPRNCDKERAVLLQRRK [L12C] | 1.85 |
| TYLCERCQPRNKDKERAVLLQRRK [L12K] | 2.96 |
| TYLCERCQPRNLDKHRAVLLQRRK [E15H] | 2.71 |
| TYLCERCQPRNLDKWRAVLLQRRK [E15W] | 1.94 |
| TYLCERCQPRNLDKPRAVLLQRRK [E15P] | 2.12 |
| TYLCERCQPRNLDKTRAVLLQRRK [E15T] | 2.32 |
| TYLCERCQPRNLDKERAVLLVRRK [Q21V] | 1.84 |
| TYLCERCQPRNLDKERAVLLNRRK [Q21N] | 2.42 |
| TYLCERCQPRNLDKERAVLLMRRK [Q21M] | 2.46 |
| TYLCERCQPRNLDPERAVLLQRRK [K14P] | 1.96 |
| TYLCERCQPRNLDYERAVLLQRRK [K14Y] | 2.64 |
| TYLCERCQPRNLDHERAVLLQRRK [K14H] | 1.74 |

| Variant | protein stability index |
| --- | --- |
| TYLCERCQPRNLDWERAVLLQRRK [K14W] | 2.89 |
| TYLCERCQPRNLDLERAVLLQRRK [K14L] | 3.62 |
| TYLCEPCQPRNLDKERAVLLQRRK [R6P] | 3.84 |
| TYLCEHCQPRNLDKERAVLLQRRK [R6H] | 1.87 |
| TYLCEVCQPRNLDKERAVLLQRRK [R6V] | 2.42 |
| TYLCEECQPRNLDKERAVLLQRRK [R6E] | 3.87 |
| TYLCEDCQPRNLDKERAVLLQRRK [R6D] | 2.93 |
| TYLCEGCQPRNLDKERAVLLQRRK [R6G] | 4.25 |
| TRLCERCQPRNLDKERAVLLQRRK [Y2R] | 2.88 |
| QYLCERCQPRNLDKERAVLLQRRK [T1Q] | 2.14 |
| WYLCERCQPRNLDKERAVLLQRRK [T1W] | 3.05 |
| TYLCERCQPRNLDKERARLLQRRK [V18R] | 3.18 |
| TYLCERCQPRNLDKERASLLQRRK [V18S] | 2.21 |
| TYLCERCQPRNLDKERAVLLQRRA [K24A] | 1.73 |
| TYLCERCQPRNLDKERAVLLQLRK [R22L] | 1.89 |
| TYLCERCQPRNLDKERAVLLQSRK [R22S] | 2.34 |
| TYLCERCQPRNLDKERAVLLQHRK [R22H] | 2.28 |
| TYLCERDQPRNLDKERAVLLQRRK [C7D] | 4.49 |
| TYLCERIQPRNLDKERAVLLQRRK [C7I] | 3.76 |
| TYLCERFQPRNLDKERAVLLQRRK [C7F] | 3.27 |
| TYLCERNQPRNLDKERAVLLQRRK [C7N] | 3.93 |
| TYLCERCEPRNLDKERAVLLQRRK [Q8E] | 2.42 |
| TYLCERCDPRNLDKERAVLLQRRK [Q8D] | 2.8 |
| TYLCERCPPRNLDKERAVLLQRRK [Q8P] | 3.38 |

| Variant | protein stability index |
| --- | --- |
| TYLCERCQPRWLDKERAVLLQRRK [N11W] | 2.09 |
| TYLCERCQPRTLDKERAVLLQRRK [N11T] | 3.08 |
| TYLCERCQPRRLDKERAVLLQRRK [N11R] | 2.15 |
| TYLCERCQPRALDKERAVLLQRRK [N11A] | 2.05 |
| TYLCERCQPRDLDKERAVLLQRRK [N11D] | 2.02 |
| TYLCERCQPRGLDKERAVLLQRRK [N11G] | 2.42 |
| TYLCERCQPRCLDKERAVLLQRRK [N11C] | 2.11 |
| TYLCERCQPRMLDKERAVLLQRRK [N11M] | 2.04 |
| TYLCERCQIRNLDKERAVLLQRRK [P9I] | 1.91 |
| TYLCERCQTRNLDKERAVLLQRRK [P9T] | 2.81 |
| TYLCERCQERNLDKERAVLLQRRK [P9E] | 3.09 |
| TYLCERCQPRNLDKECAVLLQRRK [R16C] | 1.45 |
| TYLCERCQPRNLDKEKAVLLQRRK [R16K] | 2.1 |
| TYLCERCQPRNLDKENAVLLQRRK [R16N] | 2.01 |
| TYLCERCQPRNLDKEAAVLLQRRK [R16A] | 2.49 |
| TYLCERCQPRNLDKEFAVLLQRRK [R16F] | 2.09 |
| TYLCERCQPDNLDKERAVLLQRRK [R10D] | 2.25 |
| TYLCERCQPPNLDKERAVLLQRRK [R10P] | 2.67 |
| TYLCERCQPFNLDKERAVLLQRRK [R10F] | 2.28 |
| TYLCERCQPKNLDKERAVLLQRRK [R10K] | 1.74 |
| TYLQERCQPRNLDKERAVLLQRRK [C4Q] | 3.56 |
| TYLAERCQPRNLDKERAVLLQRRK [C4A] | 4.43 |
| TYLGERCQPRNLDKERAVLLQRRK [C4G] | 3.83 |
| TYLVERCQPRNLDKERAVLLQRRK [C4V] | 3.12 |

| Variant | protein stability index |
| --- | --- |
| TYLNERCQPRNLDKERAVLLQRRK [C4N] | 3.9 |
| TYLWERCQPRNLDKERAVLLQRRK [C4W] | 2.6 |
| TYLKERCQPRNLDKERAVLLQRRK [C4K] | 3.15 |
| TYLTERCQPRNLDKERAVLLQRRK [C4T] | 4.07 |
| TYLCERCQPRNLWKERAVLLQRRK [D13W] | 2.16 |
| TYLCERCQPRNLKKERAVLLQRRK [D13K] | 2.71 |
| TYLCERCQPRNLQKERAVLLQRRK [D13Q] | 2.53 |
| TYLCERCQPRNLVKERAVLLQRRK [D13V] | 1.88 |
| TYLCERCQPRNLDKERAVFLQRRK [L19F] | 1.7 |
| TYLCERCQPRNLDKERAVQLQRRK [L19Q] | 2.54 |
| TYLCERCQPRNLDKERAVRLQRRK [L19R] | 2.52 |
| TYLCERCQPRNLDKERAVPLQRRK [L19P] | 1.85 |
| TYLCERCQPRNLDKERAVLFQRRK [L20F] | 2.3 |
| TYLCERCQPRNLDKERAVLDQRRK [L20D] | 3.55 |
| TYLCERCQPRNLDKERAVLMQRRK [L20M] | 2.4 |
| TYLCERCQPRNLDKERAVLWQRRK [L20W] | 2.31 |
| TYRCERCQPRNLDKERAVLLQRRK [L3R] | 2.16 |
| TYCCERCQPRNLDKERAVLLQRRK [L3C] | 1.45 |
| TYDCERCQPRNLDKERAVLLQRRK [L3D] | 2.99 |
| TYVCERCQPRNLDKERAVLLQRRK [L3V] | 2.17 |
| TYGCERCQPRNLDKERAVLLQRRK [L3G] | 2.85 |
| TYWCERCQPRNLDKERAVLLQRRK [L3W] | 1.96 |
